# Measured values published in patent publication US20170306033A1 (Amgen, published 2017).
# Changes are numbered by the printed parent chain.
# T1: human PAC1 receptor (human, UniProt P41586 21-468)
# T1 sequence: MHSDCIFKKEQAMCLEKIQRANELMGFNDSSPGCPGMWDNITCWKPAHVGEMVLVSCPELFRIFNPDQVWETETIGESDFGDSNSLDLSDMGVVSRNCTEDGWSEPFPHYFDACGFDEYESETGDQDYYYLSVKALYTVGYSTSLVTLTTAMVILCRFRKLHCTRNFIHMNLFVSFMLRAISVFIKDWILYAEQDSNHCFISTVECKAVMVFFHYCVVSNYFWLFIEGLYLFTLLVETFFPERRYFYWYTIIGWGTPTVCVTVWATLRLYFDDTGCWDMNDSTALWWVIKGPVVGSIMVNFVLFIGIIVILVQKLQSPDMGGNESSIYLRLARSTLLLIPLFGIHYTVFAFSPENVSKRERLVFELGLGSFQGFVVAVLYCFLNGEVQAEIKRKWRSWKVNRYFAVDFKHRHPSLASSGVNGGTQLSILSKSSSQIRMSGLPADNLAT
# B1: iPS:327876 (bispecific antibody, human IgG1, kappa, N297G)
# light 1: DIQMTQSPSSLSASVGDRITITCRASQSISRYLNWYQQKPGKAPKLLIYAASSLQSGIPSRFSGSGSGTDFTLTINSLQPEDFATYFCQQSYSPPFTFGQGTKVDIKRTVAAPSVFIFPPSDEQLKSGTASVVCLLNNFYPREAKVQWKVDNALQSGNSQESVTEQDSKDSTYSLESTLTLSKADYEKHKVYACEVTHQGLSSPVTKSFNRGEC
# heavy 1: not shown
# light 2: EIVLTQSPGTLSLSPGERATLSCRASQSVSSGYLTWYQQKPGQAPRLLIYGASSRATGIPDRFSGSGSGTDFTLTISRLEPEDFAVYYCQQYGNSLSRFGQGTKLEIKRTVAAPSVFIFPPSDEQLKSGTASVVCLLNNFYPREAKVQWKVDNALQSGNSQESVTEQDSKDSTYSLKSTLTLSKADYEKHKVYACEVTHQGLSSPVTKSFNRGEC
# heavy 2: not shown
# B2: iPS:327877 (bispecific antibody, human IgG1, kappa, N297G)
# light 1: not shown
# heavy 1: not shown
# light 2: B1 light 2
# heavy 2: not shown
# B3: iPS:327740 (bispecific antibody, human IgG1, kappa, lambda, N297G)
# light 1: not shown
# heavy 1: not shown
# light 2: QSVLTQPPSVSAAPGQKVTISCSGSSSNIGNNYVSWYQQLPGTAPKLLIYDNNKRPSGIPDRFSGSKSGTSATLGITGLQTGDEADYYCGTWDSRLSAVVFGGGTKLTVLGQPKANPTVTLFPPSSEELQANKATLVCLISDFYPGAVTVAWKADGSPVKAGVETTKPSKQSNNKYAAKSYLSLTPEQWKSHRSYSCQVTHEGSTVEKTVAPTECS
# heavy 2: QVQLVESGGGVVQPGRSLRLSCAASGFTFSSFGMHWVRQAPGKGLEWVAVISFDGSIKYSVDSVKGRFTISRDNSKNTLFLQMNSLRAEDTAVYYCARDRLNYYESSGYYHYKYYGMAVWGQGTTVTVSSASTKGPSVFPLAPSSKSTSGGTAALGCLVKDYFPEPVTVSWNSGALTSGVHTFPAVLQSSGLYSLESVVTVPSSSLGTQTYICNVNHKPSNTKVDKKVEPKSCDKTHTCPPCPAPELLGGPSVFLFPPKPKDTLMISRTPEVTCVVVDVSHEDPEVKFNWYVDGVEVHNAKTKPCEEQYGSTYRCVSVLTVLHQDWLNGKEYKCKVSNKALPAPIEKTISKAKGQPREPQVYTLPPSRKKMTKNQVSLTCLVKGFYPSDIAVEWESNGQPENNYKTTPPVLKSDGSFFLYSKLTVDKSRWQQGNVFSCSVMHEALHNHYTQKSLSLSPGK
# B4: iPS:327742 (bispecific antibody, human IgG1, kappa, lambda, N297G)
# light 1: EIVLTQSPATLSLSPGERATLSCRASQSVGRSLHWYQQKPGQAPRLLIKYASQSLSGIPARFSGSGSGTDFTLTISSLEPEDFAVYYCHQSSRLPFTFGPGTKVDIKRTVAAPSVFIFPPSDEQLKSGTASVVCLLNNFYPREAKVQWKVDNALQSGNSQESVTEQDSKDSTYSLESTLTLSKADYEKHKVYACEVTHQGLSSPVTKSFNRGEC
# heavy 1: not shown
# light 2: B3 light 2
# heavy 2: B3 heavy 2
# B5: iPS:327741 (bispecific antibody, human IgG1, kappa, lambda, N297G)
# light 1: DIQLTQSPSFLSASVGDRVTITCRASQSIGRSLHWYQQKPGKAPKLLIKYASQSLSGVPSRFSGSGSGTEFTLTISSLQPEDFATYYCHQSSRLPFTFGPGTKVDIKRTVAAPSVFIFPPSDEQLKSGTASVVCLLNNFYPREAKVQWKVDNALQSGNSQESVTEQDSKDSTYSLESTLTLSKADYEKHKVYACEVTHQGLSSPVTKSFNRGEC
# heavy 1: not shown
# light 2: B3 light 2
# heavy 2: B3 heavy 2
# B6: iPS:327871 (bispecific antibody, human IgG2, kappa, lambda)
# light 1: B5 light 1
# heavy 1: QVQLVESGAEVVKPGASVKVSCKASGFTFSRFAMHWVRQAPGQGLEWMGVISYDGGNKYYAESVKGRVTMTRDTSTSTLYMELSSLRSEDTAVYYCARGYDVLTGYPDYWGQGTLVTVSSASTKGPSVFPLAPCSRSTSESTAALGCLVKDYFPEPVTVSWNSGALTSGVHTFPAVLQSSGLYSLKSVVTVPSSNFGTQTYTCNVDHKPSNTKVDKTVERKCCVECPPCPAPPVAGPSVFLFPPKPKDTLMISRTPEVTCVVVDVSHEDPEVQFNWYVDGVEVHNAKTKPREEQFNSTFRVVSVLTVVHQDWLNGKEYKCKVSNKGLPAPIEKTISKTKGQPREPQVYTLPPSREEMTKNQVSLTCLVDGFYPSDIAVEWESNGQPENNYDTTPPMLDSDGSFFLYSDLTVDKSRWQQGNVFSCSVMHEALHNHYTQKSLSLSPGK
# light 2: B3 light 2 with A72T
# heavy 2: QVQLVESGGGVVQPGRSLRLSCAASGFTFSSFGMHWVRQAPGKGLEWVAVISFDGSIKYSVDSVKGRFTISRDNSKNTLFLQMNSLRAEDTAVYYCARDRLNYYDSSGYYHYKYYGMAVWGQGTTVTVSSASTKGPSVFPLAPCSRSTSESTAALGCLVKDYFPEPVTVSWNSGALTSGVHTFPAVLQSSGLYSLESVVTVPSSNFGTQTYTCNVDHKPSNTKVDKTVERKCCVECPPCPAPPVAGPSVFLFPPKPKDTLMISRTPEVTCVVVDVSHEDPEVQFNWYVDGVEVHNAKTKPREEQFNSTFRVVSVLTVVHQDWLNGKEYKCKVSNKGLPAPIEKTISKTKGQPREPQVYTLPPSRKKMTKNQVSLTCLVKGFYPSDIAVEWESNGQPENNYKTTPPMLKSDGSFFLYSKLTVDKSRWQQGNVFSCSVMHEALHNHYTQKSLSLSPGK
# Target: human CGRP receptor (human, UniProt Q16602 23-461; O60894 27-148)
# Sequence (Q16602 23-461 limits assumed, chain 1 of 2): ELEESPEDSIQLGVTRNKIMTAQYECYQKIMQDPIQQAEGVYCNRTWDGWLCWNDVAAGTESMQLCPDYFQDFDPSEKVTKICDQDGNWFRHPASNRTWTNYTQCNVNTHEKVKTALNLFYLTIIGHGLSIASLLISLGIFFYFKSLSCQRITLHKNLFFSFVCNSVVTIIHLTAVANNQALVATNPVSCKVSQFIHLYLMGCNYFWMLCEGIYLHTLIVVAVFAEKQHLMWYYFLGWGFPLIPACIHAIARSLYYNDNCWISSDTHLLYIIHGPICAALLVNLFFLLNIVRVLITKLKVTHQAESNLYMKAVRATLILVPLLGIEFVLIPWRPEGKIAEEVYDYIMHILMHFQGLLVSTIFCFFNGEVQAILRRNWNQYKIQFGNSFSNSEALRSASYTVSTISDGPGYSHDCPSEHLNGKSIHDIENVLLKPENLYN
# Sequence (O60894 27-148 limits assumed, chain 2 of 2): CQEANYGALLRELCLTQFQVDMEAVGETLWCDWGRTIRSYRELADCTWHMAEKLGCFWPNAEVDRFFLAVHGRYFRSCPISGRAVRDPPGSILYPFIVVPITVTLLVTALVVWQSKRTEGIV
# Test: cell-based or functional assay
row,Binder,% inhibition of human CGRPR
1,B1,77%
2,B2,72%
3,B3,74%
4,B4,84%
5,B5,83%
6,B6,65%

# Target: T1, human PAC1 receptor
# Test: cell-based or functional assay
row,Binder,% inhibition of human PAC1
1,B1,11%
2,B2,22%
3,B3,58%
4,B4,96%
5,B5,70%
6,B6,68%
